Usually Km stands for the substrate concentration at which the rate is half of its maximum. The kcat is the maximal rate divided by the concentration of active sites. The kcat/Km is the second-order rate constant that governs catalysis at low substrate concentration.

One data set concerns tyrosol. Description: In vivo tyrosol glycosylation assay in yeast expressing Rr4HPAAS. It counts as cell-based. Particulars: UGT on 2-micron TEF-promoter plasmid in S. cerevisiae BY4743 expressing Rr4HPAAS. The source says:
To facilitate functional assessment of a large number of UGT candidates, an in vivo tyrosol glycosylation assay in the yeast S. cerevisiae was devised. Initial iterations of the tyrosol-producing yeast strains were generated by transforming wild type S. cerevisiae BY4743 with separate 2-micron TEF-promoter expression plasmids containing Rr4HPAAS and Rr4HPAR1, respectively. It was later observed that yeast contains endogenous ADH activity sufficient to reduce 4-hydroxyphenylacetaladehyde produced by Rr4HPAAS to tyrosol. Therefore, the Rr4HPAR1-containing plasmid was omitted in the final tyrosol-producing strain (FIG. 18). Each of the 34 R. rosea UGT candidate genes, carried on the yeast 2-micron TEF-promoter expression plasmids, was transformed into the background strain expressing Rr4HPAAS. After auxotrophic selection, colonies were cultured, harvested and subjected to metabolic profiling by LC-HRAM-MS. […] The UGTs that contain T4GT activity appear to be phylogenetically diverse with representative enzymes falling into the D, G, E and K groups, while all of identified T8GTs cluster within the G group (FIG. 4A).
Crown tissue and root tissue of a three-month-old R. rosea plant was harvested and stored at −80° C. before subsequent metabolomic analysis. Various transgene-carrying S. cerevisiae BY4743 strains and transiently transformed N. benthamiana plants were generated to test the activity of candidate genes involved in the tyrosol glycoside biosynthesis. 3 mL of saturated S. cerevisiae culture was used to inoculate 50 mL of synthetic minimal media (SD) in a shake flask. After 24 hours of shaking at 30° C., the culture was pelleted by centrifugation, washed with water, and stored at −80° C. before further processing. N. benthamiana leaf tissue was harvested 5 days after Agrobacterium infiltration and was stored at −80° C. before further processing. Frozen yeast or plant tissue was disrupted with a TissueLyser (Qiagen) using acid-washed metal beads in 50% methanol (500 μL per 100 mg fresh weight). The extracts were then analyzed by LC-HRAM-MS. Metabolite profiling was conducted on a QExactive benchtop orbitrap mass spectrometer equipped with an Ion Max source and a HESI II probe, which was coupled to a Dionex UltiMate 3000 UPLC system (Thermo Fisher Scientific). 2 μL of each sample was injected onto a 150×2.1 mm ZIC-pHILIC column (5 μm particle size, EMD Millipore). Solvent A was 20 mM ammonium carbonate, 0.1% ammonium hydroxide; solvent B was acetonitrile. The column oven and autosampler tray were held at 25° C. and 4° C., respectively. The chromatographic gradient was run at a flow rate of 0.15 mL/min as follows: 0-20 min, linear gradient from 80% to 20% solvent B; 20-20.5 min, linear gradient from 20% to 80% solvent B; 20.5-28 min, hold at 80% solvent B. The mass spectrometer was operated in full-scan, polarity-switching mode with the spray voltage set to 3.0 kV, the heated capillary held at 275° C., and the HESI probe held at 350° C. The sheath gas flow was set to 40 units, the auxiliary gas flow was set to 15 units, and the sweep gas flow was set to 1 unit. The MS data acquisition was performed in a range of 70-1000 m/z, with the resolution set at 70,000, the AGC target at 10 e6, and the maximum injection time at 20 msec. The raw data was converted to mzML format using MSConvert (Chambers et al., 2012), and analyzed using MetaboAnalyst (Xia and Wishart, 2016) and MZmine2 (Pluskal et al., 2010).

Substrate in data set [1]: OCCc1ccc(O)cc1
Briefly: Michaelis-Menten kinetics of RrT4GT (RrUGT3), tyrosol 4-O-glucosylation. It counts as biochemical, Rhodiola rosea. Particulars: other: substrate tyrosol (0.01-5.0 mM), 10 mM UDP-glucose, pH 8.0, 30° C., 10 min. On the procedure:
Kinetic characterization of UGTs was conducted in 200 μL reaction buffer (50 mM Tris, pH 8.0) containing 10 mM UDP-glucose and various concentrations of tyrosol (0.01-5.0 mM). Reactions were started with addition of recombinant enzyme, incubated at 30° C. for 10 minutes, and quenched by addition of 200 μL of methanol. The reaction mixed was then analyzed by LC-HRAR-MS as described above. Compounds were separated by reversed-phase chromatography with a ramp gradient of solvent A (0.1% formic acid in H2O) and solvent B (0.1% formic acid in acetonitrile): 5% solvent B for 0.5 min, 5-55% solvent B over 6 min, 55-5% solvent B over 1.0 min and a final equilibration of 5% solvent B for 1 min with a flow rate at 0.6 mL/min. Product formation was measured using select ion monitoring in positive mode for a centroid center mass of 318.15. Product mass was calculated by comparison to a standard curve of the NMR verified plant purified salidroside and icariside D2 samples.
Kinetic constants such as Km and Vmax were determined by fitting raw data to the Michaelis-Menten equation using the nonlinear regression function in Prism (version 7.0).

B1: RrUGT7: R. rosea UGT with regio-specific T4GT activity (protein, listed as Rhodiola rosea)
chain: MAENTHAHAIVVPFPVQGHIKPSLNLALKLASQGFTITFVTTHFTHQQISQAHKNSTNTNHDMFFQARNSSLDIRHVTVTDTFPLGFDRAGNQDQFWEGMLHVFPAHVDELVDQLMNSSKPRPTCLILDTFYNWGSKIANKFNLVHISFWTQSALSFTLFYHWELLKKNGHFGSPDNRTDVIDYIPGVQEIKPADLISYLQMSDTTTVAHRTCFTAFEDVRKADFILANTIQEFETDTISSIRFHQPFFYPIGPVFLTKSEQQASSALWSESDCEQWLSTKPKGSVLYASFGSYARVTRHDIAEIAYGLMQSEVNFIWVIRDDIVGAHETDFLPTEFINGIKLKDQGLLVSWCSQTEVLSNAAIGGFLTHCGWNSILESVWCEVPLLCFPIMTDQPSNRKLVVDDWRIGVNLSAAEEVSREEVSMKVRNLISGELGNELRVQIQKYKKLMENGIMEGGSSHSNWNKFIHDLQIFKK
Take B1: the “tyrosol glycosylation activity (T8GT / T4GT)” value in the data set on tyrosol is “regio-specific T4GT activity”.

B2: RrUGT13: R. rosea UGT with regio-specific T4GT activity (protein, listed as Rhodiola rosea)
chain: MAEISLIFIPFPVISHLTPTIEIAKILLSRDHRLSITFLVIDIPQRDASLASLTTSIISDRLHFLDVVLPPNQHSQSSKPSGIAAIESAKPAVKKTISDLVVRSQSAASGPRIAGFVLDMFCTAMIDIATEFNLPSYIYYTCGSSFLSIVLHVQKLCDDDALDIADFKNSSVEFSLPEFSNLIPARLLPSMALDKDFSASFVGKARAFRKTKGILVNSLVELEPHAIESMKLDRSVPPIYSVGPVLNMNSNTAFIRQEQEKEIMEWLDQQPPASVVFLCFGSRGAFKPDQVKEIARGLESSGCRFLWALRQPSSSNVRFSPPTDYEDFSEVLPEGFLQRTYGVGKVIGWAPQTAVLDHPSVGGFVSHCGWNSILESLWFGVPIATWPLYAEQQMNAFEVVKEMKIGVEISLDYRLEMGGKQAEGSGIISGEQIERGIRDVMQEDSEVRKKVKLMMEKSREAVVEGGSSYNYIQNFISDLRTNIGL
Turning to B2, the “tyrosol glycosylation activity (T8GT / T4GT)” value with tyrosol is recorded as “regio-specific T4GT activity”.

B3: RrUGT17: R. rosea UGT with both T8GT and T4GT activities (protein, listed as Rhodiola rosea)
chain: MGSLPSTKSHAVLVPYPAQGHINPFMQLAKLLHSKGFHITFVNNDHNHRRLLRTKGHDFVQGLEGLRFEAVPDGLPPSDRDATQDVPKLTESIYNKSMNQPFSDLLQRLNSTPGSPPVTCVISDVAMFFAWDVADELGIPNVQFWTASACGLLGYLQYDELLRRAIVPFKDENFMTDGSLEALIDWIPGMPNMRLKDLPSFMRTTSPDDVLFNYLRTITTKALKSSALLLNTFDDFEHEVVEEMKKMQPNIFLGGPLNMLLRHTSKTEITSLTTSLWKEDTHCLEWLDKQEPESVVYINYGSVTIMSDHHLNEFAWGLANSKHPFLWIVRPDVVRGESGTLPKEFYDEIKDRGLITSWCPQPEVLKHPSVGVYLTHCGWNSITESVAGGVPLMCWPFFAEQQTNSRFACTVWGTGVEVNADVKREELAEQVMEMLEGKRGQELRKNAKEWRRKAEEATDIGGSAYADFDRFMEKVVQFSV
For B3, the “tyrosol glycosylation activity (T8GT / T4GT)” value in the data set on tyrosol is “both T8GT and T4GT activities”.

B4: RrUGT2: R. rosea UGT with regio-specific T4GT activity, icariside D2-producing (protein, listed as Rhodiola rosea)
chain: MGSDSRPLRVFFFPFMAHGHLIPMVDIARLFSSQGVHSTIITTPLNANYISKTTSLSIKTIPFPAAEVGLPDGCENIDMLPSPDLFFKFFQAANLLQAPFENLLELERPDCLISDIFFPWSVDSAEKFNIPRLVFHGTSFFAMCAMESLKTHKPYKSVSTDSEPFLIPNLPDEIKMTKSQFTVDAWEDTEKGLGKLLADARASGLRSFGMIVNSFHELEPAYADYYKNVLNMKAWCVGPVSLYNRNDDEKIARGKKSAIDDHECLKWLEGKQPDSVVYVCFGSSASFPDEQLRDIALGLEESGVNFIWVIRRSSESGSEDYLPEGFEDRVKDRGLVIRGWAPQVLILDHPSVGGFVTHCGWNSALEGISAGLPMVTWPLFAEQFFNQKLITDVLKVGVEVGVQKWSRNGEDRVTKEKVEKAVRAVMVGEDAEERRGRARQLGKLAKKAVAKDGSSYIDLHNLLDELKLRRETLS
Take B4: the “tyrosol glycosylation activity (T8GT / T4GT)” value in the data set with tyrosol is “regio-specific T4GT activity”.

B5: RrUGT32: R. rosea UGT with regio-specific T8GT activity (protein, listed as Rhodiola rosea)
chain: MGSLGKKIQQKPHAICTPYPAQGHINPMLKLAKLLHHSGFYITFVHTTYNYNRLLKTHGSDSLSGLPDFQFETIPDGLPPSDAADVTQDIPALCKSTTETCLVPFKELLAKLHNKSMASPEEVPPVTCIVSDGCMSFTVDAAEEAGVPNVLLWTTSACGFLGYANYPKLIDRGIIPLKDESYFTNGYLDKTVDGIPGMKGIRLRDFPNFVCTTNPDEFMVKYAIQEITRAARADAVILNTFDALEHDFLDGLSNIYPKVLPIGPLQLPLNQIPESSPLHSICSSLWKDEPQCITWLNSQKPKSVVYVNYGSITVMTPQQMVEFAWGLANTKYPFLWIIRPDLVAGETAVLPPDFLEVTKGRSCLASWCPQEQVLSHTSIGGFLTHCGWNSMLESVVEGVPMVCWPFFAEQQTNCWAARTKWGIGMEIDNDVKRDKVQKMVTELMEGEKGKEMKRKGGEWKKLGAEAAGPNGSATLNFSRLINDVLLSKKKL
Turning to B5, in the data set with tyrosol, the “tyrosol glycosylation activity (T8GT / T4GT)” value was “regio-specific T8GT activity”.

B6: Rhodiola rosea RrT4GT (RrUGT3), tyrosol:UDP-glucose 4-O-glucosyltransferase, SEQ ID NO: 8 (Rhodiola rosea) (protein)
chain: MSGTPHIAILPSPGMGHLIPMAEFAKRLVHHHNFSITFVIPTDGPPSSAYQQVLTSLPSSIDHIFLPQVDLTDVVSQSPAHPRIETLISLTVARSLSSLRTTLSSLQSSKNLVSLVVDLFGTDAFDPAIELGISPYIFFPSTAMTLSLFLYMPQLDKSVTCEFRHMTDLVRIPGCVPVRGSDLFDPVQDRTDEAYKWVIHHSNRYPMAEGVIENSFMELEHGALKYLQTVQSGKPPVYAVGPLIKMDYDVDDSGSKIIEWLDDQPVGSVLFVSFGSGGTLSYEQMTELAHGLESSQQRFLWVVRSPNQIPNSTYFSVQSQKDPLAYLPEGFLNRTEGRGLVVSNWAPQAQILSHGSTGGFMSHCGWNSILESVVHGVPIIAWPLYAEQKMNSIIVVEDVKVALRPAGVGERVVERSEITAVVKALMEGEEGKKVRNRMKELKEAAARAVSDDGASTIAIADLAQKWRSSMKH
For the molecule B6, in data set [1], the Km is recorded as 4.11 ± 0.08 mM, the turnover number (kcat) was found to be 481.6 ± 3.91 s⁻¹ and the kcat/Km was determined as 117000 M⁻¹ s⁻¹.

B7: RrUGT29: R. rosea UGT with regio-specific T8GT activity, salidroside-producing (protein, listed as Rhodiola rosea)
chain: MGSLGKKIQQKPHAICTPYPAQGHINPMLKLAKLLHHSGFYITFVHTTYNYNRLLKTHGSDSLSGLPDFQFETIPDGLPPSDAADVTQDIPALCKSTTETCLVPFKELLAKLHNKSMASPEEVPPVTCIVSDGCMSFTVDAAEEAGVPNVLLWTTSACGFLGYANYPKLIDRGIIPLKDESYFTNGYLDKTVDGIPGMKGIRLRDFPNFVCTTNPDEFMVKYAIQEITRAARADAVILNTFDALEHDFLDGLSNIYPKVLPIGPLQLPLNQIPESSPLHSICSSLWKDEPQCITWLNSQKPKSVVYVNYGSITVMTPQQMVEFAWGLANTKYPFLWIIRPDLVAGETAVLPPDFLEVTKGRSCLASWCPQEQVLSHTSIGGFLTHCGWNSMLESVVEGVPMVCWPFFAEQQTNCWAARTKWGIGMEIDNDVKRDKVQKMVTELMEGEKGKEMKRKGGEWKKLGAEAAGPNGSATLNFSRLINDVLLSKKKIVVTT
Consider B7, for which the “tyrosol glycosylation activity (T8GT / T4GT)” value in the data set with tyrosol is “regio-specific T8GT activity”.
